# Test results taken from patent US20110166203A1, “ANTI-HEPATITIS C VIRUS COMPOSITION” (OSAKA UNIVERSITY, priority 2008, published 2011).
# B1: shRNA against PA28γ: short hairpin RNA against target sequence SEQ ID NO: 4 (…), encoded by DNA fragment SEQ ID NO: 6 in pSilencer 2.1 U6-hygro vector (nucleic acid)
# DNA: GGATCCGGTGGATCAGGAAGTGAAGTTCAAGAGACTTCACTTCCTGATCCACCTTTTTTGGAAAAGCTT
# modifications: the letters are possibly those of the target site
# How the values were obtained:
# PA28γ gene = assay: Selection of RNA interference target sequence by PA28γ expression suppressing effect; type: cell-based, human; conditions: among four target sequences from the open reading frame of the PA28γ gene
# Source text: A DNA fragment that encodes a short hairpin RNA for knocking down the human PA28γ gene by RNA interference was designed according to the following procedure.
# The following four sequences were selected as the target sequences from the open reading frame of the PA28γ gene.
# The sequence of SEQ ID NO: 4 corresponds to positions 16 to 36 of the PA28γ coding region represented by SEQ ID NO: 5.
# PA28γ = PA28γ detection by western blotting in shRNA-transfected Huh7 OK1 clones; type: cell-based, human; conditions: clones C5 and C7 vs Huh7 Ok1 cells and control shRNA cells
# Method: The DNA fragment was incorporated between the BamHI and Hind III sites of a pSilencer 2.1 U6-hygro vector (Ambion; Austin, Tex.), and introduced by lipofection to Huh7 OK1 cells sensitive to the hepatitis C virus JFH1 strain. The cells were then cultured for 1 week in a 10% fetal bovine serum Dulbecco's modified Eagle's medium supplemented with 0.1 mg/mL hygromycin. The cells were cloned by limiting dilution, and two clones, named C5 and C7, with low PA28γ expression levels were selected by western blotting.
# Separately, a commercially available pSilencer 2.1-U6 hygro negative control vector (Ambion) having no complementarity to human PA28γ gene was treated by the same procedure to establish single clones that had the same PA28γ expression level as the parental strain (control cells; hereinafter, also referred to as “control shRNA”).
# The Huh7 Ok1 cells, the control cells, and the PA28γ knockdown cells C5 and C7 were lysed, and the lysate was subjected to SDS-polyacrylamide gel electrophoresis for the detection of PA28γ and β-actin by western blotting using anti-PA28γ antibody (Affiniti) and anti-actin antibody (Sigma Aldrich Japan).
# hepatitis C virus JFH1 = assay: Virus titer of culture supernatant after JFH1 infection of PA28γ constant knockdown cells; type: cell-based; conditions: empty plasmid transfected; JFH1 MOI 0.024; 10 days culture; knockdown cells vs control cells
# Method: The control cells (control shRNA) and PA28γknockdown cells C5 and C7 were transfected with pEFFLAGGspGBK or pEFFLAGGsPA28gammaSI plasmid. The next day, the medium was replaced with 10% fetal bovine serum Dulbecco's modified Eagle's medium supplemented with 3 μg/mL puromycin, and the cells were further cultured for 24 hours. The surviving cells were then inoculated in a 12-well plate (2.5×10^4 cells/well), and infected with hepatitis C virus JFH1 at an MOI of 0.024.
# The JFH1 gene-containing plasmid pJFH1 was cut with XbaI enzyme, blunted with Mung Bean nuclease, and virus RNA was synthesized using a MEGAscript T7 kit (Ambion). The virus RNA was transfected into Huh7 OK1 cells by electroporation under the conditions 260 V and 960 μF. […] Using Huh7 OK1, the virus titer (ffu/mL) of the culture supernatant was measured according to the method of Wakita et al. (Nat. Med. 11:791-796, 2005), as follows. The Huh7 OK1 cells were infected with the culture supernatant to be measured at 37° C. for 3 hours. […]
# The rabbit anti-NS5A antibody prepared by immunizing the peptide from the amino acid residues 409 to 422 of NS5A according to the method described in J. Virol. 79:13473-13482, 2005 was allowed to react with Alexa Fluor® 488-anti-rabbit IgG antibody (Molecular Probe), and the fluorescent cell foci were counted to calculate the virus titer.
# HCV replicon RNA = assay: HCV replicon Renilla luciferase replication assay in control and PA28γ knockdown cells; type: cell-based, hepatitis C virus; conditions: knockdown cells C5 (KD5) vs control cells (Cntrl5), 24, 48, 96 h normalized to 4 h
# Method: Virus replication by replicon was evaluated in the same manner except that the control cells and knockdown cells prepared in Section 1 above were used, as described in Krieger et al. (Krieger et al., J. Virol., 75:4614-4624, 2001).
# A cDNA encoding Renilla luciferase was introduced between AscI and PmeI of a plasmid pFK-1389 neo/NS3-3′/NK5.1, instead of a neogene. The resulting plasmid pFK-1389 hRL/NS3-3/NK5.1 was cleaved at ScaI, and […] in vitro using a MEGAscript T7 kit (Ambion). A suspension of Huh7 cells (10×10^6 cells/mL) was prepared, and 400 μl of the suspension was mixed with 10 μg of in vitro transcription RNA. This was followed by electroporation performed under the conditions 270 V and 960 μF using a Gene Pulser™ (Bio-Rad). The electroporated cells were suspended in 25-ml medium, and inoculated in a 12-well culture plate (1 ml/well). Then, luciferase activities at hour 4, 24, 48, and 96 post infection were measured using a Renilla Luciferase assay system (Promega).
# The synthesized HCV replicon RNA, and the HCV replicon GND RNA with the inactivated RNA polymerase activity were transfected into control shRNA cells and PA28γ knockdown cells C5, and luciferase activity was measured.
# The measured values in each combination were normalized by dividing the values after 24, 48, and 96 hours by the value after 4 hours.
molecule,measurement,setting,value
B1,PA28γ expression suppressing effect,PA28γ gene,remarkable expression suppressing effect
same,PA28γ expression level,PA28γ,lower PA28γ expression levels
same,virus production (virus titer),hepatitis C virus JFH1,significantly lower
same,luciferase value (virus replication by replicon),HCV replicon RNA,no difference in luciferase value
